Reference: the supplement of paper PMC11136658

Test system: peptide library, one residue held at a place counted from the Y acceptor
Test: relative phosphorylation of the sub-library (ratio to the mean residue at this position); higher = residue favoured
How it was run: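 In 384-well plates, purified recombinant kinases were incubated for 90 min with 50 μM ATP containing γ-32P-ATP and biotinylated Tyr-centred peptide libraries, each mixture fixing one residue at a single position between −5 and +5. After capture on streptavidin membranes and rinsing, peptides were quantified by phosphorimaging with ImageQuant. Per-position intensities were scaled to the sum of the 18 (Ser/Thr-free library: 16) randomized residues, then multiplied by that number.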

MERTK, construct: aa578-872, human, sequence (Q12866 578-872, looked up): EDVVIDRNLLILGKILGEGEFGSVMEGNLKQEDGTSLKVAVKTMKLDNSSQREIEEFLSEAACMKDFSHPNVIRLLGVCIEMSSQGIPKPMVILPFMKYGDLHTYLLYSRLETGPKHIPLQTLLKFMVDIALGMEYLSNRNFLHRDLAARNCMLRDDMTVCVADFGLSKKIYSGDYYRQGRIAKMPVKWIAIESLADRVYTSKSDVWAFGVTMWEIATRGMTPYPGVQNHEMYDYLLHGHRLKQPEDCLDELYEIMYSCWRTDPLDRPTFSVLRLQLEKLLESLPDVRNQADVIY
PTK2B, construct: aa360-690, human, sequence (Q14289 360-690, looked up): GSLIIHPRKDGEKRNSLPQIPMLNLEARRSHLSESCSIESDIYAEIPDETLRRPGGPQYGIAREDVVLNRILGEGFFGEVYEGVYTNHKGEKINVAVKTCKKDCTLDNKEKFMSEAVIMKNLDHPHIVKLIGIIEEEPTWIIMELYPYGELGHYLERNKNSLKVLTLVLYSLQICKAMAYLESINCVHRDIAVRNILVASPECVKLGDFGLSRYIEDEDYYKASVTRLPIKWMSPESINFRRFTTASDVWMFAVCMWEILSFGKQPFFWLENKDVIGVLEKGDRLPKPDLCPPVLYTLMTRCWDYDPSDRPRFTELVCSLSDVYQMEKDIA
PDGFRA, construct: aa550-end, human, sequence (P16234 550-1089, looked up): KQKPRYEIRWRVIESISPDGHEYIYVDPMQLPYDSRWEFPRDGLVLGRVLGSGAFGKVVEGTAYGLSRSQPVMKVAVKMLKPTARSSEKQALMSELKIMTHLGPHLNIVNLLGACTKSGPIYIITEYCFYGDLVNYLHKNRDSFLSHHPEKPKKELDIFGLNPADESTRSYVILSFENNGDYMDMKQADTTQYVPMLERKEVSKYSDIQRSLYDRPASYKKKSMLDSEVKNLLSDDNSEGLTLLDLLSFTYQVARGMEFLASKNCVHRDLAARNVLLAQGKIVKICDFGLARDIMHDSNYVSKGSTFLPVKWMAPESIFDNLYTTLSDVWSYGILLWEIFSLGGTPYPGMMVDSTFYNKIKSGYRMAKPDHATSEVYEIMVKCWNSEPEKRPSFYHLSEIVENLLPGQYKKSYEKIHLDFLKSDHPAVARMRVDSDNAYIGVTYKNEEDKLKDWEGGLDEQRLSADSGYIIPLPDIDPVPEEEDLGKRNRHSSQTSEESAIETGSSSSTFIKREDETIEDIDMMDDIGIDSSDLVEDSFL

MERTK, construct: aa578-872, human (from UniProt Q12866)
relative phosphorylation
Conditions	at +1	at +2	at +3	at +4	at +5	at -1	at -2	at -3	at -4	at -5
A fixed	2.07	0.87	0.578	0.92	1.15	0.711	1.06	1.01	1.28	1.1
D fixed	0.89	0.601	0.483	0.962	0.839	0.591	0.967	1.27	1.12	0.979
E fixed	1.69	1.01	0.426	1.27	0.786	0.468	1.28	1.55	1.44	0.974
F fixed	1.01	1.64	1.93	1.14	0.565	1.75	0.655	0.836	0.595	1.03
G fixed	0.859	0.321	0.63	1.37	1.61	0.299	1.63	1.28	1.46	1.31
H fixed	0.791	0.687	0.848	1.12	1.01	1.4	0.989	0.875	0.891	0.994
I fixed	0.708	1.34	1.58	0.549	0.621	2.37	0.533	0.482	0.84	0.889
K fixed	0.25	0.594	0.254	0.822	0.996	0.436	0.948	0.746	0.911	1.05
L fixed	0.831	1.4	2.13	0.799	0.745	2.69	0.777	0.863	1.02	0.993
M fixed	1.4	1.2	1.64	1.09	0.917	1.14	0.68	0.967	0.968	1
N fixed	0.447	0.768	0.465	0.76	0.879	0.842	1.26	1.21	0.926	1.13
P fixed	0.172	0.684	1.17	1.2	2.65	0.481	1.18	1.32	1.25	1.24
Q fixed	1.04	0.695	0.72	0.962	0.81	0.63	1.19	0.953	1.16	1.09
R fixed	0.353	0.679	0.392	1.07	0.991	0.439	1.09	0.775	1.2	1.13
S fixed	1.33	0.725	0.562	0.926	1.08	0.517	1.34	1.16	0.807	0.783
T fixed	1.3	0.973	0.838	1	0.97	0.939	1.1	1.17	0.667	0.874
V fixed	1.53	1.33	1.55	0.904	0.756	1.38	0.842	0.803	0.866	0.862
W fixed	1.34	2.47	1.8	1.14	0.608	0.916	0.484	0.743	0.594	0.564
pThr fixed	1.89	1.18	0.3	0.633	0.568	0.718	0.915	1.1	0.901	0.902
pTyr fixed	1.96	2.62	0.613	0.678	0.61	2.26	1.19	1.46	1.13	0.957

PDGFRA, construct: aa550-end, human (from UniProt P16234)
relative phosphorylation
Conditions	at +1	at +2	at +3	at +4	at +5	at -1	at -2	at -3	at -4	at -5
A fixed	0.719	0.633	0.549	0.784	0.982	0.729	1.02	0.85	1.04	0.882
D fixed	0.273	0.434	0.302	0.674	0.645	1.32	0.947	0.97	0.898	0.812
E fixed	0.492	0.583	0.198	0.613	0.565	0.962	0.814	1.14	0.849	0.737
F fixed	2.05	1.59	1.61	1.05	1.35	1.37	0.853	0.954	1.21	1.11
G fixed	0.34	0.427	0.755	0.98	0.943	0.594	1.09	1.07	1.08	1.03
H fixed	1.43	1.02	0.972	1.34	1.1	1.47	1.01	1.09	0.962	1.15
I fixed	1.66	1.03	2.09	0.922	0.999	1.36	0.94	0.823	0.916	1.1
K fixed	0.699	1.12	1.02	1.05	1.08	0.509	0.835	0.959	1.06	0.995
L fixed	1.31	1.4	1.53	0.808	1.12	1.18	1	0.905	1.06	1.11
M fixed	1.13	1.2	1.13	1.17	1.02	0.892	1	0.967	0.878	1.1
N fixed	0.671	0.856	0.748	0.987	0.967	1.49	1.06	1.13	0.832	1.07
P fixed	0.31	0.863	0.928	1.11	0.943	0.931	1.34	1.08	1.06	0.885
Q fixed	1.25	0.928	0.632	1.01	0.92	1.07	1.13	1.11	1.07	1.04
R fixed	0.768	1.56	1.19	1.49	1.17	0.55	1.03	1.09	1.05	1.19
S fixed	0.655	0.633	0.604	0.91	0.932	0.694	1.03	1.02	0.801	0.817
T fixed	0.848	0.606	0.793	0.97	0.888	0.945	0.917	0.977	0.745	0.856
V fixed	1.92	0.851	1.62	0.839	0.98	1.02	0.954	0.778	0.894	0.86
W fixed	1.46	2.27	1.33	1.31	1.39	0.91	1.03	1.07	1.6	1.26
pThr fixed	0.498	0.395	0.237	0.467	0.482	0.675	0.695	0.693	0.744	0.786
pTyr fixed	1.75	1.49	0.414	0.788	0.626	1.09	0.876	1.12	1.16	1.02

PTK2B, construct: aa360-690, human (from UniProt Q14289)
relative phosphorylation
Conditions	at +1	at +2	at +3	at +4	at +5	at -1	at -2	at -3	at -4	at -5
A fixed	2.28	0.739	0.756	0.904	1.08	0.722	1.03	1.03	1.15	1.03
D fixed	1.55	0.792	0.312	0.86	0.799	0.478	1.34	1.28	0.976	0.952
E fixed	2.04	1.29	0.341	0.961	0.887	0.489	1.54	1.52	0.85	0.801
F fixed	0.834	1.85	1.42	1.04	0.992	1.06	0.634	0.986	1.29	1.07
G fixed	1.1	0.402	0.58	1.02	1.31	0.297	1.06	1.07	1.23	1.14
H fixed	0.593	0.657	0.685	1.05	0.966	0.719	0.953	0.965	1.01	1.05
I fixed	1.12	1.56	2.46	0.896	0.903	4.36	1.02	0.657	0.851	0.978
K fixed	0.171	0.444	0.228	0.762	0.731	0.29	0.703	0.866	0.915	1.13
L fixed	0.499	1.68	1.61	0.925	0.92	1.99	1.02	0.816	1.07	1.04
M fixed	0.908	1.13	1.11	1.15	1	0.811	0.729	0.903	0.939	1.08
N fixed	0.297	0.815	0.397	0.711	0.838	0.63	1.13	1.18	0.937	1.02
P fixed	0.374	0.702	2.31	1.08	1.72	0.488	1.15	0.97	1.14	1.01
Q fixed	0.788	0.679	0.365	0.992	0.758	0.443	1.09	0.895	0.918	0.896
R fixed	0.215	0.603	0.298	0.938	0.912	0.374	0.748	0.923	0.969	1.16
S fixed	1.15	0.82	0.669	0.981	1.1	0.534	1.08	1.27	0.927	0.98
T fixed	1.02	0.823	0.794	0.875	1.09	0.935	0.962	1.02	0.679	0.825
V fixed	2.02	1.27	2.28	1.09	0.926	2.67	1.2	0.704	0.86	0.926
W fixed	1.04	1.75	1.4	1.77	1.07	0.714	0.613	0.95	1.3	0.917
pThr fixed	3.7	2.29	0.44	0.84	0.752	0.624	1.09	0.878	0.728	0.817
pTyr fixed	2.13	6.16	0.885	1.48	0.901	1.53	1.17	1.32	0.964	0.94
